The assay concerns the target T1, Tfb2 (yeast (endogenous, purified from yeast), UniProt Q02939 1-513).
T1 sequence: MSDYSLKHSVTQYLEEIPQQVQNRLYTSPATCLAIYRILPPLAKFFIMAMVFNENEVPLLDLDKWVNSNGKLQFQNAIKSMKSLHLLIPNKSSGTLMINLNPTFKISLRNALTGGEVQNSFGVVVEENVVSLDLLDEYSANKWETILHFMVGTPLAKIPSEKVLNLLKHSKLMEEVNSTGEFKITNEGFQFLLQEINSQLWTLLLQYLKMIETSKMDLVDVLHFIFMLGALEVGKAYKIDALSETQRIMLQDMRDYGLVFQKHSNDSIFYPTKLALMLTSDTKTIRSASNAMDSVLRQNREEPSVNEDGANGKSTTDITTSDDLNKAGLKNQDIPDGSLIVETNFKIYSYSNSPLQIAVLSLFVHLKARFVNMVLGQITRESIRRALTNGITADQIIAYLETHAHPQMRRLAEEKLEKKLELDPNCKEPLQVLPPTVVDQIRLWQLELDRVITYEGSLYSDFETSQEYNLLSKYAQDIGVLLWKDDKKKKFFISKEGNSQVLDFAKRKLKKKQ
Description: cryo-EM structure.

B1: Tfb5 (natural protein)
chain: MARARKGALVQCDPSIKALILQIDAKMSDIVLEELDDTHLLVNPSKVEFVKHELNRLLSKNIYNPMDEEENQ
As to B1, the binding result was “binds”.

(Values after paper doi:10.1101/2021.01.14.426755 (bioRxiv, 2021).)
